Assay: soluble on expression in E. coli; label from the status in PepcDB or PDB records

Sequence | soluble on expression in E. coli
MSQFGATAIGIANIAMNGEVLDTWYPTPELVPASTSPSYSERLGAQDLPPKLLSLVRLDEDRLVEQVAVRTYIGDLDTPPIDAHDVFLRLHLLSHRLVRPLEINMDNAMSILSRVVWTNKGPCLPENFENIRMSLRNRGLIHVYGIDRLPRMVDYVVPTGVEITEAERVRLGAYLAEGTKVLREGYVSFNAGTLGAGRIEGRLYSGTVVGDNVDLGISASIVPDKPHAQLRVGANCVFGLGSAVMGINLGDNVRVGNNVVIDKETMVYFADRDITAAAAILDGQSDWQIHAESGRPEPVVRPT | soluble
MSDKPEDENTNENPGRRRFLGGMAALGAGVTLSGYVSAHERPPAEAEKHHLVGPALDRALRENVKTVVVIYAENRSFNNLFGNFPGVQKPLSSVRPADYVQRDRNGTLLDKLPPAWGGVLQVGPQTVDGVTYPVGVQFQENLPNAPFPLKGPNAEDLPLSLVTRDLWHVFYQNQMQINDGKNDRFVAWADAGGLTMGNYAQTQYSLRLWDVAKEFVLCDNFFQGAFGGSFLNHQYLISATAPIYPNAADSPAKSQIASLQSMNPLDSRLKPLDKSPASAMEGPPQFGPSAITPDNYAVNTLAPPYWPTWLRDPQNPDYSKPDLANVLVPQSHEHIGDKLSKRNVDWAWYAGAWQVTLDEFKDSTGIPKIPNFQYHHQPFNYFKQQGPQNPEERKKRLRDGGLGDESSTNRFLADAEAGKLPAVAFYKPQGNLNMHAGYADVASGDRHIDRVIKVLRNSPQWDNMVIVVTVDENGGWWDHVAPPKGDRFGPGTRIPALVISPFARKGKVDHTVYDTASILRLITRVHGLEKLDGLKRRDEAMIARGQAPMGDLTNALHFPALEHHHHHH | soluble
MTIRNFAIEYDAINDRNTFSNGDTLAGRVIVEVSKQTKITSLTVQAKGKANVAWTETHGEESVTYWDKEKYFSQTQSVLPEDKADGSVTLVAGRHVFPFAFQLPNQSLPSSFKGVHGKIHYRLMAKLSRSFRAASKAEAKFTFVARADYDTSTLTTPQHGSKDKNVMFFASGNISMDIFLPKTGYQQGEGLIVNGEIVNSSTRKIVPKYIIYQKQSFFAGGQRAVHTTEILKEKGEPLVSSTRENLYKVLPLPPEISSTIHNCRILKVEYRLKVILDVSFTKNPVIKLPFIVLPLCNETPPKAIEEGLYPDLAKMKISN | soluble
SNAQESRLDRILESGVLRVATTGDYKPFSYRTEEGGYAGFDVDMAQRLAESLGAKLVVVPTSWPNLMRDFADDRFDIAMSGISINLERQRQAYFSIPYLRDGKTPITLCSEEARFQTLEQIDQPGVTAIVNPGGTNEKFARANLKKARILVHPDNVTIFQQIVDGKADLMMTDAIEARLQSRLHPELCAVHPQQPFDFAEKAYLLPRDEAFKRYVDQWLHIAEQSGLLRQRMEHWLEYR | soluble
MGSDKIHHHHHHSAHNKVSSQKLEAKNVNQVSNYSGDIDLLTVSQPTTPTTNNGQINQYFINRFDNAISLLNGKYVVNHNVLPQNTSGEEINILNESVKIANQQLIVGAQKIEKSDIDVKVVQKGNSIILAENPTTLKNSATSMATKHVGVTKVEFHWYGVRLFLSKNDVNKILKYGPTSVSIATIWMPTTWVVKLAASAAVACGWMSSVNGGIWIDWGLIPTKWGWQ | not soluble
MNTDKQVYPLYYEAKNDKVRKRLGIKGGFYWAEAKKLSIAISRGAVAIDDAGYDEDDFKKPVRVNLPVVDDLPPEGVFDTEFCNRYEKGGEDGITMVFIASSPSVQDKPASTDNTNVNGEDMTEIEENMLLPVSGQELPIRWLAQHGSEKPVTHVSRDELQALHIARDEELPAVTALAVSHKTSLLDPLEIRDLHKLVRDTDRVFPNPGNSSLGLMTAFFEAYMDADYTDRGLLTKEWMKGNRVSRITRTASGANAGGGNLTDRGEGFVHDLTSLARDVATGVLARSMDVDIYNLHPAHAKRVEEIIAENKPPFSVFRDKFITMPGGMDYSRAIVVASVKEAPIGIEVIPAHVTEYLNKVLTETDHANPDPEIVDIACGRSSAPMPQRVTEEGKQDDEEKTQPSGAMADEQATAETMEPDATEHHQNTQPLDAQSQVNSVDEKYQELRAELHEARKNIPPKNPVDADKLLAALR | not soluble
MGSDKIHHHHHHMRPAPSIVEVVAAIIIGSDGSFLLARRPEGKPYAGYWEFPGGKVNPEESLLRALKRELLEELGIHVKHAYPWITRTFTYPHARVRLHFYRVVEWHGEPHPHEDQELSWQFADNVSVEPLLPANAPVLRALALPPVYGITNAAEWGPQIAAARIGHALQKGLRLVQLREKGMRSKALDAFAREVTALAHHYGARILVNSGTGNESLCQELDMDGIHFTSADLMNLSKRPDVEWCAASCHNAEELFRAEQLEMDFAVLAPVLPTLSHPDSPVLGWRKLARIIHGSAIPVYALGGLQSEDLAIAWEHGAHGIALMRRIEQVRGTGQKA | not soluble
ASMTGGQQMGRILVAVLISGTGSNLQALIDSTREPNSSAQIDIVISNKAAVAGLDKAERAGIPTRVINHKLYKNRVEFDSAIDLVLEEFSIDIVCLAGFMRILSGPFVQKWNGKMLNIHPSLLPSFKGSNAHEQALETGVTVTGCTVHFVAEDVDAGQIILQEAVPVKRGDTVATLSERVKLAEHKIFPAALQLVASGTVQLGENGKICWVKEEPLEHHHHHH | soluble
LPQSVSRAAITAAYRRPETEAVSMLLEQARLPQPVAEQAHKLAYQLADKLRNQKNASGRAGMVQGLLQEFSLSSQEGVALMCLAEALLRIPDKATRDALIRDKISNGNWQSHIGRSPSLFVNAATWGLLFTGKLVSTHNEASLSRSLNRIIGKSGEPLIRKGVDMAMRLMGEQFVTGETIAEALANARKLEEKGFRYSYDMLGEAALTAADAQAYMVSYQQAIHAIGKASNGRGIYEGPGISIKLSALHPRYSRAQYDRVMEELYPRLKSLTLLARQYDIGINIDAEESDRLEISLDLLEKLCFEPELAGWNGIGFVIQAYQKRCPLVIDYLIDLATRSRRRLMIRLVKGAYWDSEIKRAQMDGLEGYPVYTRKVYTDVSYLACAKKLLAVPNLIYPQFATHNAHTLAAIYQLAGQNYYPGQYEFQCLHGMGEPLYEQVTGKVADGKLNRPCRIYAPVGTHETLLAYLVRRLLENGANTSFVNRIADTSLPLDELVADPVTAVEKLAQQEGQTGLPHPKIPLPRDLYGHGRDNSAGLDLANEHRLASLSSALLNSALQKWQALPMLEQPVAAGEMSPVINPAEPSSSVDKLAAALEHHHHHH | soluble
MIYSIPFLFFIIVSCSNSSTEMVAKSKYDAKIAEYKELNEQQAAVIEDNLEKSKIINNVVTELNQIAGNTHSLRVNVEHGVGELSQAEEINQKLQTLKKRLSAVEGKRSDGSKNLLATMDKLKSIIEQKEIEINNLKQEIANQQQTIANQKNTIASQQVTIDAQSQELMNKQQEMWYKLGTELHSVVEELPKVKGRKDKRNIKNTRYYILNKAKECFEHAAQLGHSLAGSKARQVEGEMSRL | not soluble
MSLNREFDVTAPNQVWCGDITYIWAQGKWHYLAVVMDLYARRVLGWAFSKKSDTDLVIKALDMAYEQRGKPQGLLFHSDQGAQYGSRQFRKRLWRYRVRQSMSRRGNCYDNSPMARVFRSLKTEWIPAVGYMTAQEAQGDISHYLMHRYNRVRPHQFNDGLAPAQYEKTLTSEGHHHHHH | not soluble
MSLSTFPTALAVAVSVPSSLTPQDFSWRKFKLKRNVKISRNFEFAISCSGDRAASIGFDVPFPKDYTELLQQVFILFAFSPLKIGGWGSRNRGGITREIKAKEATELALKDNRQLMEIEFPTAGLGSVPGDGEGGIEMTGSIQLIREFCDLLVIPEKATKTRIFFPEANEVKFARQSIFGGASFKLDYLTKPSFFEDFGFTEKVKMADRVKPEDELFIVAYPYFNVNEMLVVEELYQAAVLNTSRKLIIFNGELDRIRSDYPPFFYPKLAALSKTLFPKMETVYYIHNFKGRNGGVLFRCYPGPWKVFRRVGSTNICLHQQESMPSLKEVALDILPSAEGHHHHHH | not soluble
NKYYKLGEIAQKVLVGGEKPADFSKEKNEVYKYPILSNNSKAEEFLVYSKTFRVEEKSITVSARGTIGAVFYRDFAYLPAVSLICFVPKEEFDIRFLFHALRAIKFKKQGSATGQLTVAQFKEYGIHVPSLKKQKEIAAILDPLYS | not soluble
MSLHPADFIEKPPRFPVVDGHVDLVYDLMRRHPGIPFEQVADGQVTAQSLKKGGVWVLVAALYCADSHNGPASAAREMRRLHDYACRYLEWFALLRSPGEMAAALGGSGPPGIVFLVENADALLELDLDEVRRWGVRAVGLTHAGRNRLADGNGVTDPKGLTAAGKSLVRSIAGAGLILDVAHLAEPGFREVASLVTGPLISSHTGLRSFCDRPRNLSDPQVAEIARRGGVVGISAAPEMLVPGGTATLDDLFRQVDHVVQRHGPEAVGIGSDFGGFDDTAKGAEDHGGLPLLAERLLGAGYPAGAVGLIMGGNWCRIYGGIEGHHHHHH | soluble
MQKMDCQAIGYGYIIIPKALLKEQLIDCSPHEGEIEAFLKLLVKVNYSETKLTDHQRRTIVCKRGESLHSYRSWSAIFHWPTSRTYRFIQQLKTNGIIEIIPHNDTTALHIRVVNYENWTNISALLNEKKENTQKASNEKFRLFWDDYHNILQLPKENIAKAQRIWKKLSEKEQQLAIDHIEEYYYHQTNMKFTLHACSYLSNKAFLNEYEY | not soluble
MLTEIGKIIRQRRQQHGITIEQLAEQSNVSISLISRLERGKVDNIKLQSLTAIAETLNLKIADFFRDELLQSPNVVALLDYLSDLPAHQREELAGTLLKLLRLSKS | not soluble
METKKIAGVLVTMVAPFENHMANGGEKLFGNASSIKRRPDGRVYVSGQMQRHVLFSAIDRLNHLDKAKGTTFVSNGDGITNLIEIDLRADLGGFMHTNKGDYSDRRIAPLSVTPATALDTSSVGRDLLVRIRFDKSSDAKNQALATREYSEQDKMNMNFFLDITSVGVSKSFVYKDGLNLGTKYFKHITDDEKKRRVKLFLEATRIMNDYANQARNAVCGEPEKVLIVFDDRLSRKACRYYTVGEKEQANIIKELDQYQVKYFVGDDASDYSVADAYRDAMNYLDKATLVDFAEGEEIMTFAEAFECKEKEPQEKKSKKGKDKATSAQNLFAEQQDDQ | not soluble
MSLQIVPYLIFNGNCREAFSCYHQHLGGTLEAMLPFGDSPECGDIPADWKDKIMHARLVVGSFALMASDNHPAYPYEGIKGCSISLNVDSKAEAERLFNALAEGGSVQMPLGPTFWAASFGMFTDRFGVAWMVNCEQDREGGSHHHHHH | soluble

From the DeepSol protein solubility set
